According to patent US11965039B2, “Compstatin analogues and their medical uses” (priority 2018, dated 2024):
Like-named read-outs stand apart in the source and are kept apart here. Positions of bridges follow the written chain, without caps; N, C: chain ends. Non-standard residues stand in square brackets, D forms with d. Trp(1-Me) = Cn1cc(C[C@H](N)C(=O)O)c2ccccc21; NMeI = CC[C@H](C)[C@H](NC)C(=O)O; β3hI = CC[C@H](C)[C@H](N)CC(=O)O; Nle = CCCC[C@H](N)C(=O)O; Nva = CCC[C@H](N)C(=O)O; Sar = CNCC(=O)O

What was measured:
[1] = target: T1, Human C3 (Complement tech cat #A113c) (human, UniProt P01024 23-1663); test: cell-based or functional assay
T1 sequence (P01024 23-1663 limits assumed): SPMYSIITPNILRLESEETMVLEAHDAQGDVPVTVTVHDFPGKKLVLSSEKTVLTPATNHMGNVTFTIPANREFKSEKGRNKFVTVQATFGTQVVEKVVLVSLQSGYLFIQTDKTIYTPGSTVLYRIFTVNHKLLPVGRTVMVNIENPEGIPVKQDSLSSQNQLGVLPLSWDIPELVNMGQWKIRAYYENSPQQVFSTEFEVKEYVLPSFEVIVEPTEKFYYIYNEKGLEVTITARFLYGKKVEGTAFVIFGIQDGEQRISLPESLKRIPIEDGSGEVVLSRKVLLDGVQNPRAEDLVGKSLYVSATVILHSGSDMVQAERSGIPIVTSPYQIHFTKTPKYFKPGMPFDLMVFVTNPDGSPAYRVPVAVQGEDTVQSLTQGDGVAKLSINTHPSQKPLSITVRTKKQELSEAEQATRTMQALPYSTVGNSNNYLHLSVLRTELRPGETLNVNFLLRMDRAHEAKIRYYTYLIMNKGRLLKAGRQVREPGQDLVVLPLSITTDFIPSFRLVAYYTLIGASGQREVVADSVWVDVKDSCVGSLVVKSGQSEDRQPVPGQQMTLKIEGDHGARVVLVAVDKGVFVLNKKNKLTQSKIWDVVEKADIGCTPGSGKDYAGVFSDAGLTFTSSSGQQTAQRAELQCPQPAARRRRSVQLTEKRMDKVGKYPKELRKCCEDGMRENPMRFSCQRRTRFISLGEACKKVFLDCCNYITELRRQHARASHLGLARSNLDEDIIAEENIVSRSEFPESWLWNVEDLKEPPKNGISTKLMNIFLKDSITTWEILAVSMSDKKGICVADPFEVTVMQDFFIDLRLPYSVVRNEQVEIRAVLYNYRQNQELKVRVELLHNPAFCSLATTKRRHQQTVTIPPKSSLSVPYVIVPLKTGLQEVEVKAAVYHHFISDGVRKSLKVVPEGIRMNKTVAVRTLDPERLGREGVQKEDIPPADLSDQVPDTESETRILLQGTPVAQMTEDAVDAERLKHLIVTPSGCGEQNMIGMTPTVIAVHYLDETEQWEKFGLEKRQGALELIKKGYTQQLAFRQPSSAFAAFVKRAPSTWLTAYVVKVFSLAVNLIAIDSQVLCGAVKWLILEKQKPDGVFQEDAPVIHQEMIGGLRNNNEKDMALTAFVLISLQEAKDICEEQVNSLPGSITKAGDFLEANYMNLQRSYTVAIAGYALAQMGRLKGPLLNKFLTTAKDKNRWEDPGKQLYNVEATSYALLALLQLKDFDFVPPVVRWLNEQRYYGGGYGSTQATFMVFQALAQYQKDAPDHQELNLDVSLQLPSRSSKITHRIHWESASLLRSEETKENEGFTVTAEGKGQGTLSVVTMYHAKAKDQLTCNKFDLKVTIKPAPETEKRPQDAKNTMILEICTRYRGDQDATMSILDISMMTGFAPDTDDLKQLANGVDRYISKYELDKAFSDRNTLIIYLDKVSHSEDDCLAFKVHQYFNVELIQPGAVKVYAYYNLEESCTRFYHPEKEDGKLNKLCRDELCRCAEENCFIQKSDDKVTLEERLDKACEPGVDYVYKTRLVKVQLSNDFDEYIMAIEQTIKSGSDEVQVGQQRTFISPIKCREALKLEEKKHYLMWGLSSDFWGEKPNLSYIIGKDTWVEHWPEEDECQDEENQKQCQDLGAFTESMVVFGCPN

[2] = target: T1, Human C3 (Complement tech cat #A113c); test: cell-based or functional assay; remark: listed apart in the source
[3] = target: T1, Human C3 (Complement tech cat #A113c); test: cell-based or functional assay; remark: listed apart in the source
[4] = target: T1, Human C3 (Complement tech cat #A113c); test: SPR (Biacore T200), human C3 immobilised, peptide injected, 1:1 fit
How it was run: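 Human C3 amine-coupled on CM5 chips to about 3000 RU. Multi-cycle runs on Biacore T200 at 25° C: peptides at 6-8 rising concentrations, 60-120 s at 30 µL/min in 10 mM Tris pH 7.4, 150 mM NaCl, 0.05% Tween20, dissociation up to 10 min; 3 M MgCl2 regeneration. Kd derived.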

[5] = target: T1, Human C3 (Complement tech cat #A113c); test: as above; remark: listed apart in the source
Protocol: Surface plasmon resonance (SPR) was used to characterize peptides with respect to their binding affinity (Kd) for C3. Human C3 (Complement tech cat #A113c) was immobilised on individual flow cells of CM5 sensor chips (GE Healthcare) using standard amine coupling to a density of approximately 3000 resonance units (RU) in a buffer consisting of 10 mM phosphate pH 7.4, 150 mM NaCl, 0.05% Tween20.
For interaction experiments a multi-cycle experiment approach was used and performed using a BiacoreT200™ instrument (GE Healthcare) at 25° C. Peptides were injected in increasing concentration series (6-8 different concentrations) for 60-120 sat a flow rate of 30 µL/min in a buffer consisting of 10 mM Tris buffer at pH 7.4, with 150 mM NaCl and 0.05% Tween20. This was followed by a dissociation period for up to 10 min. The C3 surface was regenerated between runs by a 45 s injection of 3 M MgCl_2.

Row | Binder | inhibition of hemolysis IC50 [1] [nM] | CP hemolysis IC50 [2] [nM] | IC50, CP hemolysis [3] [nM] | Kd [4] [nM] | Kd [5] [nM]
1 | Ac-ICIWQDWGEHRCT-NH2 (disulfide 2-12; SMILES CC[C@H](C)[C@H](NC(C)=O)C(=O)N[C@H]1CSSC[C@@H](C(=O)N[C@H](C(N)=O)[C@@H](C)O)NC(=O)[C@H](CCCNC(=N)N)NC(=O)[C@H](Cc2c[nH]cn2)NC(=O)[C@H](CCC(=O)O)NC(=O)CNC(=O)[C@H](Cc2c[nH]c3ccccc23)NC(=O)[C@H](CC(=O)O)NC(=O)[C@H](CCC(N)=O)NC(=O)[C@H](Cc2c[nH]c3ccccc23)NC(=O)[C@H]([C@@H](C)CC)NC1=O) [Compound 2] | < 100 | 94 | < 100 | 16 | 16
2 | Ac-ICIWQDWGEHRCS-NH2 (disulfide 2-12; SMILES CC[C@H](C)[C@H](NC(C)=O)C(=O)N[C@H]1CSSC[C@@H](C(=O)N[C@@H](CO)C(N)=O)NC(=O)[C@H](CCCNC(=N)N)NC(=O)[C@H](Cc2c[nH]cn2)NC(=O)[C@H](CCC(=O)O)NC(=O)CNC(=O)[C@H](Cc2c[nH]c3ccccc23)NC(=O)[C@H](CC(=O)O)NC(=O)[C@H](CCC(N)=O)NC(=O)[C@H](Cc2c[nH]c3ccccc23)NC(=O)[C@H]([C@@H](C)CC)NC1=O) [Compound 21] | < 100 | 77 | – | 16 | 16
3 | Ac-ICVWQDWGEHRCT-NH2 (disulfide 2-12; SMILES CC[C@H](C)[C@H](NC(C)=O)C(=O)N[C@H]1CSSC[C@@H](C(=O)N[C@H](C(N)=O)[C@@H](C)O)NC(=O)[C@H](CCCNC(=N)N)NC(=O)[C@H](Cc2c[nH]cn2)NC(=O)[C@H](CCC(=O)O)NC(=O)CNC(=O)[C@H](Cc2c[nH]c3ccccc23)NC(=O)[C@H](CC(=O)O)NC(=O)[C@H](CCC(N)=O)NC(=O)[C@H](Cc2c[nH]c3ccccc23)NC(=O)[C@H](C(C)C)NC1=O) [Compound A] | – | 350 | 350 | – | 130
4 | Ac-ICVWQDWGEHRCS-NH2 (disulfide 2-12; SMILES CC[C@H](C)[C@H](NC(C)=O)C(=O)N[C@H]1CSSC[C@@H](C(=O)N[C@@H](CO)C(N)=O)NC(=O)[C@H](CCCNC(=N)N)NC(=O)[C@H](Cc2c[nH]cn2)NC(=O)[C@H](CCC(=O)O)NC(=O)CNC(=O)[C@H](Cc2c[nH]c3ccccc23)NC(=O)[C@H](CC(=O)O)NC(=O)[C@H](CCC(N)=O)NC(=O)[C@H](Cc2c[nH]c3ccccc23)NC(=O)[C@H](C(C)C)NC1=O) [Compound G] | – | 180 | – | – | 160
5 | Ac-ICIWQDWGEHRCTGAES-NH2 (disulfide 2-12; SMILES CC[C@H](C)[C@H](NC(C)=O)C(=O)N[C@H]1CSSC[C@@H](C(=O)N[C@H](C(=O)NCC(=O)N[C@@H](C)C(=O)N[C@@H](CCC(=O)O)C(=O)N[C@@H](CO)C(N)=O)[C@@H](C)O)NC(=O)[C@H](CCCNC(=N)N)NC(=O)[C@H](Cc2c[nH]cn2)NC(=O)[C@H](CCC(=O)O)NC(=O)CNC(=O)[C@H](Cc2c[nH]c3ccccc23)NC(=O)[C@H](CC(=O)O)NC(=O)[C@H](CCC(N)=O)NC(=O)[C@H](Cc2c[nH]c3ccccc23)NC(=O)[C@H]([C@@H](C)CC)NC1=O) [Compound 15] | < 100 | 47 | – | 14 | 14
6 | Ac-ICVWQDWGEHRCTGAES-NH2 (disulfide 2-12; SMILES CC[C@H](C)[C@H](NC(C)=O)C(=O)N[C@H]1CSSC[C@@H](C(=O)N[C@H](C(=O)NCC(=O)N[C@@H](C)C(=O)N[C@@H](CCC(=O)O)C(=O)N[C@@H](CO)C(N)=O)[C@@H](C)O)NC(=O)[C@H](CCCNC(=N)N)NC(=O)[C@H](Cc2c[nH]cn2)NC(=O)[C@H](CCC(=O)O)NC(=O)CNC(=O)[C@H](Cc2c[nH]c3ccccc23)NC(=O)[C@H](CC(=O)O)NC(=O)[C@H](CCC(N)=O)NC(=O)[C@H](Cc2c[nH]c3ccccc23)NC(=O)[C@H](C(C)C)NC1=O) [Compound D] | – | 210 | – | – | 230
7 | Ac-ICIWQDWGEHRCTEGE-NH2 (disulfide 2-12; SMILES CC[C@H](C)[C@H](NC(C)=O)C(=O)N[C@H]1CSSC[C@@H](C(=O)N[C@H](C(=O)N[C@@H](CCC(=O)O)C(=O)NCC(=O)N[C@@H](CCC(=O)O)C(N)=O)[C@@H](C)O)NC(=O)[C@H](CCCNC(=N)N)NC(=O)[C@H](Cc2c[nH]cn2)NC(=O)[C@H](CCC(=O)O)NC(=O)CNC(=O)[C@H](Cc2c[nH]c3ccccc23)NC(=O)[C@H](CC(=O)O)NC(=O)[C@H](CCC(N)=O)NC(=O)[C@H](Cc2c[nH]c3ccccc23)NC(=O)[C@H]([C@@H](C)CC)NC1=O, also called Comp No 24) [Compound 24] | < 100 | 90 | – | 28 | –
8 | Ac-IC[Nva]WQDWGEHRCT-NH2 (disulfide 2-12; SMILES CCC[C@@H]1NC(=O)[C@@H](NC(=O)[C@@H](NC(C)=O)[C@@H](C)CC)CSSC[C@@H](C(=O)N[C@H](C(N)=O)[C@@H](C)O)NC(=O)[C@H](CCCNC(=N)N)NC(=O)[C@H](Cc2c[nH]cn2)NC(=O)[C@H](CCC(=O)O)NC(=O)CNC(=O)[C@H](Cc2c[nH]c3ccccc23)NC(=O)[C@H](CC(=O)O)NC(=O)[C@H](CCC(N)=O)NC(=O)[C@H](Cc2c[nH]c3ccccc23)NC1=O) [Ac-IC(1)XWQDWGEHRC(1)T-NH2 with Norvaline at position 3] | – | – | > 1000 | – | –
9 | Ac-IC[Nle]WQDWGEHRCT-NH2 (disulfide 2-12; SMILES CCCC[C@@H]1NC(=O)[C@@H](NC(=O)[C@@H](NC(C)=O)[C@@H](C)CC)CSSC[C@@H](C(=O)N[C@H](C(N)=O)[C@@H](C)O)NC(=O)[C@H](CCCNC(=N)N)NC(=O)[C@H](Cc2c[nH]cn2)NC(=O)[C@H](CCC(=O)O)NC(=O)CNC(=O)[C@H](Cc2c[nH]c3ccccc23)NC(=O)[C@H](CC(=O)O)NC(=O)[C@H](CCC(N)=O)NC(=O)[C@H](Cc2c[nH]c3ccccc23)NC1=O) [Ac-IC(1)XWQDWGEHRC(1)T-NH2 with Norleucine at position 3] | – | – | 480 | – | –
10 | Ac-IC[β3hI]WQDWGEHRCT-NH2 (disulfide 2-12) [Ac-IC(1)XWQDWGEHRC(1)T-NH2 with Beta-Homo-Isoleucine at position 3] | – | – | > 10000 | – | –
11 | H-[dY]ICI[Trp(1-Me)]QDW[Sar]AHRC[NMeI]-NH2 (disulfide 3-13; SMILES CC[C@H](C)[C@H](NC(=O)[C@H](N)Cc1ccc(O)cc1)C(=O)N[C@H]1CSSC[C@@H](C(=O)N(C)[C@H](C(N)=O)[C@@H](C)CC)NC(=O)[C@H](CCCNC(=N)N)NC(=O)[C@H](Cc2c[nH]cn2)NC(=O)[C@H](C)NC(=O)CN(C)C(=O)[C@H](Cc2c[nH]c3ccccc23)NC(=O)[C@H](CC(=O)O)NC(=O)[C@H](CCC(N)=O)NC(=O)[C@H](Cc2cn(C)c3ccccc23)NC(=O)[C@H]([C@@H](C)CC)NC1=O) [Compound 48] | < 100 | – | – | 0.12 | 0.12
